According to the supplement of paper PMC9732359:
± gives the uncertainty stated by the source.

Test: protein stability index of a GFP-peptide fusion (yeast GPS) (PSI 1-4); higher = more stable; sorted into four equal gates, so the index is relative within each strain
Procedure, shortened: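 Tiled 17-residue yeast protein peptides were fused downstream of GFP in a plasmid that also expresses Cherry, and the pooled library was carried in yeast. Mid-log cultures in leucine-free medium were sorted into four equal gates by GFP/Cherry fluorescence ratio, and plasmids from each gate were PCR-amplified and Illumina-sequenced, with reads assigned to strains by barcodes. The protein stability index for each peptide was each gate's read frequency times its gate number, summed.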

Sequence | protein stability index (doa10∆) | protein stability index (pdr5∆) | protein stability index (san1∆) | protein stability index (ubr1∆)
ELALIEEAYDNPHDTLN [PRP8] | 3.32 ± 0.088 | 3.3 ± 0.077 | 3.51 ± 0.076 | 3.41 ± 0.07
SPSYSPTSPNYSPTSPS [RPO21] | 2.85 ± 0.039 | 2.94 ± 0.04 | 2.97 ± 0.033 | 3.024 ± 0.026
DFDGDEMNLHVPQSEET [RPO21] | 3.04 ± 0.083 | 3.12 ± 0.063 | 2.98 ± 0.045 | 3.23 ± 0.074
RGSLDSEHVFDYFFYFL [NUT1] | 2.8 ± 0.059 | 2.59 ± 0.042 | 2.71 ± 0.041 | 3.16 ± 0.032
LIPEDKRDQYLKSASKE [RPL28] | – | 3.1 ± 0.19 | 1.95 ± 0.18 | 3.36 ± 0.098
EDMETQASDPSKKKKNI [RPC53] | 3.27 ± 0.14 | 3.44 ± 0.19 | 3.24 ± 0.16 | 3.33 ± 0.15
LSLKRTLTDILEDELYH [RPN4] | 3.11 ± 0.1 | 3.52 ± 0.11 | 3.47 ± 0.11 | 3.15 ± 0.11
NRLSNPQKNLLLKGPAS [YOR098C/NUP1] | 2.96 ± 0.049 | 3.05 ± 0.038 | 2.68 ± 0.054 | 2.94 ± 0.056
PISEKGLTLSTTNLDID [RPP1] | 2.82 ± 0.052 | 2.92 ± 0.041 | 3.05 ± 0.034 | 2.9 ± 0.049
HEVQYQESSSTLSTHST [SIN4] | 2.68 ± 0.037 | 2.78 ± 0.036 | 2.87 ± 0.041 | 2.83 ± 0.032
DAIQAGIWNDLGSGSNV [PUP1] | 2.71 ± 0.26 | – | – | –
SFDSIDHSWFLLIGCKL [CSI1] | 1.71 ± 0.1 | 1.77 ± 0.058 | 1.72 ± 0.2 | 2.58 ± 0.05
ATYMDNDIAGQPQALQK [RPO21] | 2.56 ± 0.077 | 2.49 ± 0.078 | 2.5 ± 0.073 | 2.7 ± 0.051
QSESRQKRQLHDISKTE [SNU114] | 3 ± 0.096 | 2.87 ± 0.071 | 3.13 ± 0.073 | 3.04 ± 0.046
HQHGDKVDIFEIPETGE [FAS2] | – | 2.75 ± 0.28 | – | 2.54 ± 0.069
PVLNLDKLWTLIPEDKR [RPL28] | 1.54 ± 0.056 | 1.45 ± 0.058 | 2.04 ± 0.071 | 1.17 ± 0.036
SSLVRRNSVKLLSKLLL [YCS4] | 1.68 ± 0.047 | 1.61 ± 0.04 | 1.64 ± 0.085 | 1.39 ± 0.027
AKPFQVTKEYFQDVYDL [FAS1] | 2.96 ± 0.12 | 2.81 ± 0.074 | 2.4 ± 0.088 | 2.72 ± 0.063
KTNIIEKAMDYAISIEN [RPN12] | 3.13 ± 0.18 | 3.25 ± 0.12 | 2.95 ± 0.1 | 3.45 ± 0.12
EGARMVRELFEMARTKK [RPT1] | 1.78 ± 0.12 | 1.7 ± 0.15 | – | –

Sequence | protein stability index (doa10∆) | protein stability index (pdr5∆) | protein stability index (san1∆) | protein stability index (ubr1∆)
ECQVIAAEGLCKLFLAD [YCG1] | 3.29 ± 0.066 | 3.29 ± 0.067 | 3.11 ± 0.047 | 3.25 ± 0.036
QKEQNVNNRDSEKGFSK [YCS4] | 2.91 ± 0.071 | 3.11 ± 0.063 | 2.41 ± 0.061 | 2.97 ± 0.036
YGEAPTSPGFGVSSPGF [RPO21] | 3.06 ± 0.14 | 3.45 ± 0.14 | 2.93 ± 0.17 | 3.17 ± 0.054
TCDEIQNFENDFSLRYI [REC8] | 2.52 ± 0.14 | 2.12 ± 0.28 | 3.35 ± 0.15 | 2.88 ± 0.28
LSNLSKDIKANLSSNVN [YCS4] | 2.85 ± 0.05 | 3.03 ± 0.068 | 3.04 ± 0.06 | 2.93 ± 0.046
IDMGEDKENVPVEKVKE [DPB4] | 3.41 ± 0.23 | 3.45 ± 0.14 | 3.29 ± 0.21 | 3.67 ± 0.13
FPSSETTSLNPIQSKVF [BRR2] | 2.2 ± 0.093 | 2.52 ± 0.082 | 1.79 ± 0.14 | 2.33 ± 0.11
VLIAQERSAGNIVQVFK [RPB2] | 2.85 ± 0.13 | 3.39 ± 0.23 | 2.97 ± 0.087 | 3.11 ± 0.064
MIFETIVDGKLKTEKIF [FAS1] | 1.8 ± 0.07 | 2.21 ± 0.12 | 1.89 ± 0.1 | 2.17 ± 0.08
KKTRIIPRHLQLAIRND [HTA1] | 2.47 ± 0.088 | 2.69 ± 0.078 | 3.03 ± 0.11 | 2.05 ± 0.081
FGNSSPQLTFTHVANFM [YML103C/NUP188] | 2.97 ± 0.096 | 3.03 ± 0.08 | 3.04 ± 0.054 | 2.92 ± 0.052
LQYTALTGSPNNPLVQK [ARP7] | 2.66 ± 0.07 | 2.7 ± 0.064 | 2.34 ± 0.078 | 2.95 ± 0.045
KEEISDQKPIEHIKEGS [SWI3] | 2.96 ± 0.053 | 2.82 ± 0.051 | 2.88 ± 0.063 | 3 ± 0.04
SSTQDVILRKISMLVTQ [CSI1] | 1.62 ± 0.054 | 1.75 ± 0.054 | 1.91 ± 0.085 | 1.77 ± 0.041
QARTATLKYICAECSSK [RPC10] | 2.72 ± 0.12 | 2.98 ± 0.1 | 2.84 ± 0.065 | 2.79 ± 0.073
NDIKLFVDDTNVYRVTV [PRP8] | 2.58 ± 0.084 | 2.63 ± 0.091 | 2.43 ± 0.072 | 2.57 ± 0.053
VITLLNNSSITLRCSVV [YCS4] | 2.04 ± 0.06 | 1.2 ± 0.062 | 1.21 ± 0.12 | 1.16 ± 0.051
RIMEKSVILSVISMFVL [YML031W/NDC1] | 1.31 ± 0.14 | 1.44 ± 0.1 | 1.17 ± 0.11 | 1.12 ± 0.049
LIIDDPSKGQSLSKISQ [RPP1] | 2.77 ± 0.07 | 2.81 ± 0.063 | 3.04 ± 0.055 | 3.02 ± 0.056
ESKPFSSDALSKEKANF [SIR4] | 1.96 ± 0.068 | 1.59 ± 0.065 | 1.73 ± 0.089 | 1.39 ± 0.056
